Assay results from patent publication US20230051847A1 (Johns Hopkins, published 2023).
Read-outs that look alike come from different tables or passages of the source.

B1: H/K/N RAS Q61L_A1_cl10 (scFv)
scFv: DIQMTQSPSSLSASVGDRVTITCRASQDVNTAVAWYQQKPGKAPKLLIYSASFLYSGVPSRFSGSRSGTDFTLTISSLQPEDFATYYCQQSYYPYYPWTFGQGTKVEIKRTGGGSGGGGSGGGASEVQLVESGGGLVQPGGSLRLSCAASGFNVSHSAMHWVRQAPGKGLEWVATVHPDWGNTYYADSVKGRFTISADTSKNTAYLQMNSLRAEDTAVYYCSRWQQYYYSFDYWGQGTLVTVSS
B2: H/K/N RAS Q61L_A1_cl9 (scFv)
scFv: DIQMTQSPSSLSASVGDRVTITCRASQDVNTAVAWYQQKPGKAPKLLIYSASFLYSGVPSRFSGSRSGTDFTLTISSLQPEDFATYYCQQTYYYPFTFGQGTKVEIKRTGGGSGGGGSGGGASEVQLVESGGGLVQPGGSLRLSCAASGFNLYAWGMHWVRQAPGKGLEWVALVYGGWGSTSYADSVKGRFTISADTSKNTAYLQMNSLRAEDTAVYYCSRAGSSKMSAGAFDYWGQGTLVTVSS
B3: H/K/N RAS Q61H_A1_cl5 (scFv)
scFv: DIQMTQSPSSLSASVGDRVTITCRASQDVNTAVAWYQQKPGKAPKLLIYSASFLYSGVPSRFSGSRSGTDFTLTISSLQPEDFATYYCQQSSYSPWTFGQGTKVEIKRTGGGSGGGGSGGGASEVQLVESGGGLVQPGGSLRLSCAASGFNISPWDMHWVRQAPGKGLEWVAQLYPSSGYTNYADSVKGRFTISADTSKNTAYLQMNSLRAEDTAVYYCSRSVYWSLDYWGQGTLVTVSS
B4: H/K/N RAS Q61H_A1_cl8 (scFv)
scFv: DIQMTQSPSSLSASVGDRVTITCRASQDVNTAVAWYQQKPGKAPKLLIYSASFLYSGVPSRFSGSRSGTDFTLTISSLQPEDFATYYCQQSFSTPITFGQGTKVEIKRTGGGSGGGGSGGGASEVQLVESGGGLVQPGGSLRLSCAASGFNISEYLMHWVRQAPGKGLEWVALLPPGLSYTNYADSVKGRFTISADTSKNTAYLQMNSLRAEDTAVYYCSRYGYYAFDYWGQGTLVTVSS
B5: H/R/N RAS Q61R_A1_cl5 (scFv)
scFv: DIQMTQSPSSLSASVGDRVTITCRASQDVNTAVAWYQQKPGKAPKLLIYSASFLYSGVPSRFSGSRSGTDFTLTISSLQPEDFATYYCQQYYLYQPITFGQGTKVEIKRTGGGSGGGGSGGGASEVQLVESGGGLVQPGGSLRLSCAASGFNIGMYTMHWVRQAPGKGLEWVALVYPDSGYTNYADSVKGRFTISADTSKNTAYLQMNSLRAEDTAVYYCSRYTWQSMDYWGQGTLVTVSS
B6: H/R/N RAS Q61R_A1_cl7 (scFv)
scFv: DIQMTQSPSSLSASVGDRVTITCRASQDVNTAVAWYQQKPGKAPKLLIYSASFLYSGVPSRFSGSRSGTDFTLTISSLQPEDFATYYCQQYASDPITFGQGTKVEIKRTGGGSGGGGSGGGASEVQLVESGGGLVQPGGSLRLSCAASGFNLDYGWMHWVRQAPGKGLEWVAWVVPGSDYTDYADSVKGRFTISADTSKNTAYLQMNSLRAEDTAVYYCSRFHYTAFDVWGQGTLVTVSS
B7: H/R/N RAS Q61R_A1_cl18 (scFv)
scFv: DIQMTQSPSSLSASVGDRVTITCRASQDVNTAVAWYQQKPGKAPKLLIYSASFLYSGVPSRFSGSRSGTDFTLTISSLQPEDFATYYCQQYIYDPVTFGQGTKVEIKRTGGGSGGGGSGGGASEVQLVESGGGLVQPGGSLRLSCAASGFNVDWAWMHWVRQAPGKGLEWVAWVVGGSDYTYYADSVKGRFTISADTSKNTAYLQMNSLRAEDTAVYYCSRSYYYAFDYWGQGTLVTVSS
B8: H/K/N RAS Q61L_A1_cl11 (scFv)
scFv: DIQMTQSPSSLSASVGDRVTITCRASQDVNTAVAWYQQKPGKAPKLLIYSASFLYSGVPSRFSGSRSGTDFTLTISSLQPEDFATYYCQQYDRPITFGQGTKVEIKRTGGGSGGGGSGGGASEVQLVESGGGLVQPGGSLRLSCAASGFNIYYEAMHWVRQAPGKGLEWVAQIYPWNDYTYYADSVKGRFTISADTSKNTAYLQMNSLRAEDTAVYYCSRNYYAATMDYWGQGTLVTVSS
B9: H/K/N RAS Q61L_A1_cl4 (scFv)
scFv: DIQMTQSPSSLSASVGDRVTITCRASQDVNTAVAWYQQKPGKAPKLLIYSASFLYSGVPSRFSGSRSGTDFTLTISSLQPEDFATYYCQQSWYSPSTFGQGTKVEIKRTGGGSGGGGSGGGASEVQLVESGGGLVQPGGSLRLSCAASGFNISASGMHWVRQAPGKGLEWVAWIWGGSSYTYYADSVKGRFTISADTSKNTAYLQMNSLRAEDTAVYYCSRGQYLSYMDYWGQGTLVTVSS
B10: H/K/N RAS Q61L_A1_cl1 (scFv)
scFv: DIQMTQSPSSLSASVGDRVTITCRASQDVNTAVAWYQQKPGKAPKLLIYSASFLYSGVPSRFSGSRSGTDFTLTISSLQPEDFATYYCQQASRQPYTFGQGTKVEIKRTGGGSGGGGSGGGASEVQLVESGGGLVQPGGSLRLSCAASGFNFSESGMHWVRQAPGKGLEWVAHFSGDSGYTYYADSVKGRFTISADTSKNTAYLQMNSLRAEDTAVYYCSRYMYYSGYFDYWGQGTLVTVSS
B11: H/R/N RAS Q61R_A1_cl1 (scFv)
scFv: DIQMTQSPSSLSASVGDRVTITCRASQDVNTAVAWYQQKPGKAPKLLIYSASFLYSGVPSRFSGSRSGTDFTLTISSLQPEDFATYYCQQSYTSPLTFGQGTKVEIKRTGGGSGGGGSGGGASEVQLVESGGGLVQPGGSLRLSCAASGFNIYYGVMHWVRQAPGKGLEWVAMIYPDSSWTYYADSVKGRFTISADTSKNTAYLQMNSLRAEDTAVYYCSRDQDFHYMNYYLSYALDYWGQGTLVTVSS
notes: also called H/K/N RAS Q61R(55-64)-A1 cl.1
B12: H/K/N RAS Q61L_A1_cl3 (scFv)
scFv: DIQMTQSPSSLSASVGDRVTITCRASQDVNTAVAWYQQKPGKAPKLLIYSASFLYSGVPSRFSGSRSGTDFTLTISSLQPEDFATYYCQQTSSYPITFGQGTKVEIKRTGGGSGGGGSGGGASEVQLVESGGGLVQPGGSLRLSCAASGFNIYWYGMHWVRQAPGKGLEWVAQVYPWSGFTYYADSVKGRFTISADTSKNTAYLQMNSLRAEDTAVYYCSRDYYSYSLDYWGQGTLVTVSS
B13: H/K/N RAS Q61L_A1_cl8 (scFv)
scFv: DIQMTQSPSSLSASVGDRVTITCRASQDVNTAVAWYQQKPGKAPKLLIYSASFLYSGVPSRFSGSRSGTDFTLTISSLQPEDFATYYCQQSYSSGPVTFGQGTKVEIKRTGGGSGGGGSGGGASEVQLVESGGGLVQPGGSLRLSCAASGFNFSYGGIHWVRQAPGKGLEWVAMIYPLTGYTNYADSVKGRFTISADTSKNTAYLQMNSLRAEDTAVYYCSRDYYYSVDVWGQGTLVTVSS
B14: H/R/N RAS Q61R_A1_cl3 (scFv)
scFv: DIQMTQSPSSLSASVGDRVTITCRASQDVNTAVAWYQQKPGKAPKLLIYSASFLYSGVPSRFSGSRSGTDFTLTISSLQPEDFATYYCQQSYYAPITFGQGTKVEIKRTGGGSGGGGSGGGASEVQLVESGGGLVQPGGSLRLSCAASGFNVQWSHMHWVRQAPGKGLEWVARLSPPSGYTNYADSVKGRFTISADTSKNTAYLQMNSLRAEDTAVYYCSRLILSKGGYGWAMDYWGQGTLVTVSS
B15: H/K/N RAS Q61H_A1_cl9 (scFv)
scFv: DIQMTQSPSSLSASVGDRVTITCRASQDVNTAVAWYQQKPGKAPKLLIYSASFLYSGVPSRFSGSRSGTDFTLTISSLQPEDFATYYCQQGEYSPLTFGQGTKVEIKRTGGGSGGGGSGGGASEVQLVESGGGLVQPGGSLRLSCAASGFNVFESAMHWVRQAPGKGLEWVAWVYGSYDYTYYADSVKGRFTISADTSKNTAYLQMNSLRAEDTAVYYCSRSFAYFQAMDYWGQGTLVTVSS
B16: H/R/N RAS Q61R_A1_cl19 (scFv)
scFv: DIQMTQSPSSLSASVGDRVTITCRASQDVNTAVAWYQQKPGKAPKLLIYSASFLYSGVPSRFSGSRSGTDFTLTISSLQPEDFATYYCQQLMYDPITFGQGTKVEIKRTGGGSGGGGSGGGASEVQLVESGGGLVQPGGSLRLSCAASGFNFGTYWMHWVRQAPGKGLEWVAWFLPDYDYTLYADSVKGRFTISADTSKNTAYLQMNSLRAEDTAVYYCSRHGEYAFDYWGQGTLVTVSS
B17: H/R/N RAS Q61R_A1_cl2 (scFv)
scFv: DIQMTQSPSSLSASVGDRVTITCRASQDVNTAVAWYQQKPGKAPKLLIYSASFLYSGVPSRFSGSRSGTDFTLTISSLQPEDFATYYCQQYWYYYPITFGQGTKVEIKRTGGGSGGGGSGGGASEVQLVESGGGLVQPGGSLRLSCAASGFNIYSYDMHWVRQAPGKGLEWVAISPGGSYTYYADSVKGRFTISADTSKNTAYLQMNSLRAEDTAVYYCSRSAFTGYFDVWGQGTLVTVSS
B18: H/R/N RAS Q61R_A1_cl13 (scFv)
scFv: DIQMTQSPSSLSASVGDRVTITCRASQDVNTAVAWYQQKPGKAPKLLIYSASFLYSGVPSRFSGSRSGTDFTLTISSLQPEDFATYYCQQYSYDPITFGQGTKVEIKRTGGGSGGGGSGGGASEVQLVESGGGLVQPGGSLRLSCAASGFNFSYSAMHWVRQAPGKGLEWVADVVPDGDWTYYADSVKGRFTISADTSKNTAYLQMNSLRAEDTAVYYCSRGWYALDYWGQGTLVTVSS
B19: H/K/N RAS Q61L_A1_cl6 (scFv)
scFv: DIQMTQSPSSLSASVGDRVTITCRASQDVNTAVAWYQQKPGKAPKLLIYSASFLYSGVPSRFSGSRSGTDFTLTISSLQPEDFATYYCQQSYYSPWTFGQGTKVEIKRTGGGSGGGGSGGGASEVQLVESGGGLVQPGGSLRLSCAASGFNISYSNIHWVRQAPGKGLEWVAMIYGTRGGTYYADSVKGRFTISADTSKNTAYLQMNSLRAEDTAVYYCSRYYSYAMDYWGQGTLVTVSS
B20: H/K/N RAS Q61L_A1_cl7 (scFv)
scFv: DIQMTQSPSSLSASVGDRVTITCRASQDVNTAVAWYQQKPGKAPKLLIYSASFLYSGVPSRFSGSRSGTDFTLTISSLQPEDFATYYCQQAYYPPWTFGQGTKVEIKRTGGGSGGGGSGGGASEVQLVESGGGLVQPGGSLRLSCAASGFNVSRWAMHWVRQAPGKGLEWVARVYPSGYLTYYADSVKGRFTISADTSKNTAYLQMNSLRAEDTAVYYCSRNMQSYMDYWGQGTLVTVSS

How the values were obtained:
Experiment in all cases: flow cytometry: scFv phage supernatant on peptide-pulsed SigM5 cells (HLA-A1+), median fluorescence intensity
[1] = target: T1, RAS Q61WT[55-64] pHLA-A1 (human)
T1 construct: also called Q61WT pHLA-A1; H/K/N RAS WT(55-64) peptide on HLA-A1

[2] = target: T1, RAS Q61WT[55-64] pHLA-A1; remark: listed apart in the source
[3] = target: T1, RAS Q61WT[55-64] pHLA-A1; remark: listed apart in the source
Method: Cells were stained with 50 μL of phage supernatant per 50 μL of cells, washed and stained with rabbit anti-M13 antibody, then washed and stained with anti-Rabbit-PE antibody. Cells were stained with a live/dead Near-IR dye, washed, and analyzed by an iQue Screener (IntelliCyt, Albuquerque, N. Mex.).
Monoclonal phage were grown and sequenced as described above. Phage supernatant from representative wells of each unique clone was selected for flow cytometry analysis. In each well of a deep 96-well 2 mL plate, 50 μL of monoclonal phage was incubated with 2.5×10⁵ peptide-pulsed SigM5 cells in 50 μL of stain buffer. Plates were incubated on ice for 1 hour, followed by washing with 1 mL of stain buffer. Cells were then stained with 1 μg of rabbit anti-M13 antibody (Novus Biologicals), washed, stained with anti-rabbit-PE (BioLegend), incubated with an additional 100 μL of LIVE/DEAD Fixable Near-IR dye diluted 1:1000 in PBS for 10 minutes at RT in the dark, followed by washing in stain buffer before analysis. Stained cells were analyzed using an Intellicyt iQue3 flow cytometer (Sartorius, Gottingen, Germany).

Binder	binding result [1]	binding result [3]	other results
B1	no binding	–	–
B2	no binding	–	–
B3	–	–	binding result [2]: no binding
B4	–	–	binding result [2]: no binding
B5	–	no binding	–
B6	–	no binding	–
B7	–	no binding	–
B8	no binding	–	–
B9	no binding	–	–
B10	no binding	–	–
B11	–	no binding	–
B12	no binding	–	–
B13	no binding	–	–
B14	–	no binding	–
B15	–	–	binding result [2]: no binding
B16	–	no binding	–
B17	–	no binding	–
B18	–	no binding	–
B19	no binding	–	–
B20	no binding	–	–
